Source: the DeepSol protein solubility set

Assay: soluble on expression in E. coli; label from the status in PepcDB or PDB records

Soluble on expression in E. coli, not soluble:
MGSDKIHHHHHHMEMAIYCGKTYSWANELCSKPLKEVKVVDYNSVVDWVNSQKERAFLIFGTDVIPYSLYEYPKIPVNETPLFKFMERGGVVIWTGDVPFFYIEKDGIKKELFSKGNPFPFKPISVMGHKPLSEKSENSIVGEMLKYDPKDSWRPVEPHPLLIPISIVKSHPYTLYSTWIYKYGKGAFVRLYDSPYVNTQYILSLPERLSSLGIGIRISNFRRFRDFKMIFPEFKIGVILGKNNVGKTTILEAIAMLGKNEDKIRKFRGNISTEIAETELFVNYTYYKAEFSYSQVNRSADVNVLLIYSHDIDFVIDDKVLPYVKSSLRKVTELLNSFDPNIFYVYLSSGNELRVLFNDRTDVSINELGYGYKSLLNFILLYVIYQPRIILIDDLEGFALHPDLLKMFYDLLLKIDVDLILITTQSSDIYAYLAEKRSDKVRFILINDDKYEVLTSEEVLDRLYYEDLRYTALKIH
MGSDKIHHHHHHMEMNDTRRRLIELIAEHHASHPGKKLGIEELSRRAGISRQSFNRYYKDLTDYAAGRKLIGDLVDDTTNAQTKQLINQQQEVMRDLQEQVEHSEIENAKKLKKAMDSYVTSLMVNDLTAHAANSLRITLEKQTVHNLQLKQELTNMEVSLAKAQANAATLAISPTPREGKGEKVKLDVDLSKAVAAFSATKSEDDFEDKKEIALKSLVQSICKLALESKCSIVLFAERYVSRFSSFYDNFSCPDDGLHIIARLPVFYRSELRTFIDKLPPTQNISLYIPYLESASEKKAQRSFYFNSIPKCELDSADEADVIPMTLGLDRIIQFRVKQGD
MGSDKIHHHHHHMEQHQVWAYQTKTHSVTLNSVDIPALAADDILVQNQAIGINPVDWKFIKANPINWSNGHVPGVDGAGVIVKVGAKVDSKMLGRRVAYHTSLKRHGSFAEFTVLNTDRVMTLPDNLSFERAAALPCPLLTAWQAFEKIPLTKQREVLIVGFGAVNNLLTQMLNNAGYVVDLVSASLSQALAAKRGVRHLYREPSQVTQKYFAIFDAVNSQNAAALVPSLKANGHIICIQDRIPAPIDPAFTRTISYHEIALGALHDFGDRQDWQILMQQGEALLTLIAQGKMEIAAPDIFRFEQMIEALDHSEQTKLKTVLTLNE
MGSDKIHHHHHHMERHTVNEIEIFTIPFDKARTISCAFLIKKGSAHEPEELAGISHFIEHMAFRGTKSYDHFSLKYTVEVVGGTLNAFTDKLATAYYAKVPEFHFGKTLNVLKEITFYPIFSPEDTEIERKIILEEYKMSQDDPTSKLFDTLVETVWPGPYGRPIIGRKETIEKISSEDLREYHRKNYNLPDTKIILAGKVNDDYLSLLEKELSELERNKPGDPLPPPPSFEHTEPRYIVRNDLEQVHIAMARPICGRISEDIYPLYALNTALGSGMSSILFHEIREKEGFVYDVFSQIYALKETGIIIVYAALSPEKIDEFFSKMKDVLSNESLFMKNFEYGKMRYLGKLDMVTDNPAGMMSFVIDDLSNDSLETIEERVERIKNVSKEDYRRAYERFIAGNWSVFGIGPESGKIIEKHEMIV
MGSDKIHHHHHHMERITILHTNDLHSHFENWPRIRRYLKTTRQQVMADGATVYTFDLGDHVDRVHPVSEATNGQQNIQLMNQIGYDGVTIGNNEGLGFVRAQLDHLYDHANFPVILGNLRIPDTHELPDWAIDHRLLTTAAGTRLLVLGLTAPYHLTYPLAGWQILDVQPTLAALLHRFAGQFDVCVLLSHLGLDVDRLLAKRFPQVTVIIGSHTHHLLPHGEHDHQSLLAAAGKFGRYIGKIELSITPDHQVKSAVASVTETATLPVADGDTAEITSLQDLGESILSEQRVANLPTAMEADPTGQPRLVREGLHAIAEYAGTQAAILNAGLFLQDLPSGVVNQNQLHQLLPHNMHVMTVTLSGYDLWRLVQEFELARLFLRRFPQKGMGFRGKIFGELNYLGLAYDAVTHQVTWRGEPLSPTRQYRIAMVDHYLFIPFFPTISIVGKNQILYDDLLREVFAQYLARHYPLT
MGSDKIHHHHHHMERMKAFLTDENFKHEINFDNDLLPYKIYQTTIANGYPDALFHWHPELEISYIYEGTAQYHIDYDYFNSQTDDIILVRPNGMHSIHPIKNKMQKAQTLLFHLDLVGYSLLDQISLRYLQPLQNSTFKLVPCIKPDMLGYQDIKNCLFAIFDIYQRQGRHFELLLKAKLQELIYLLYFHQYVLRKHSDDMYRKNEKIRELIDYIHQHYQEKLFIISLADIIGYSKTHFMTVFKQHTGTSCTDFIIQFRLSKACDLLVNSIKPILEVASEVGFTNLSNFNRQFKRYYQITPSQYRKQFKKTQK
MGSDKIHHHHHHMERYNTMSGKKTESSDNIVLYPGLVKRLIEKGMEALKEKDAKKALTMFEQAEQYDAEPSQILFGKALCYVELGKLDDAVLLTDQMLRNDIGNYYDILQIHLSLLVQLGRYDEVVEMLDVVLAEDRLPAKHAESFYQLLHFSRQMVEDSPTYIKEPLSEELDLKETYDDINERDSLEQWHFLQQMRKHNNPADIRTLLSFVESESNDPALRSYALHMLTMHKVEKRVRIRKFDQEAEVIPVELNADEQQRFGNAVVEQLEARLAVENPSLFKMAEQLWWQFLYALYPFTPKPEQKDLWAGAVHVAVHESNGLPFDEEEIAGMYNCRVQQMLEKGEEIHFVETETFQGISGHSFR
MGSDKIHHHHHHMERYSGRIFDNHFHLNPKSNFLGAANIFKRSGGTTLNLTNLPSHDAITEYYRRLYDDTIRIGDLVHYELGLEMLITIGPYPFDYFFFERYGSDPVNEMMHGLDLAAKYIEDGKAEAIGEIGFPHVPQPESVMERFWEMLDYAMKIAHDVDAPIVMHTYDLSCEDYAKIEKIAKVNGSVSVVKHHARPSDLTCNTGIARSVPASRSAVRKSLLLSRNFMLETDFINDPIDANRFLPPDSVPKRAQMILQEYDDGSEILNNIFNTIPESIYPKLKEKR
MGSDKIHHHHHHMESEIKTRGFAIDVSRDKLTVAKAELVITQEKREVEVNEVREFKYDNEGIEELIKFLGEYKEGIMESTGPYFFYLHEELTEKGYKVTLINPLHLKEVFGKKTDKLDAQRLAKAFILGAVKGSYIPTGEIRELRELTRYRESLMRKITQVKNEIRKFLEMAGYKIEPFDKRGMALLEKLSRGEGLSKEERDELKEKLGRSLNDAEKLALKQLVDLLKSLEAMVKEVEDMIISKIPQPVVELSRELV
MGSDKIHHHHHHMETKDLIVIGGGINGAGIAADAAGRGLSVLLLEAQDLACATSSASSKLIHGGLRYLEHYEFRLVSEALSERETLLKMAPHIIFPMRFRLPHQPHLRPAWMIRIGLFMYDNIGKRVSLPASKGLKFGADSVLKPELKQGFEYSDCWVDDARLVVLNAQEVAKRGGEVRTRTKVTRARREQGVWIVDAVDSLTGETFTWRAKGLVNATGPWVKEFFDDGLQLKSPYGIRLIKGSHIVVPRVHNQPQAYILQNKDHRIVFVIPWQDDYSIIGTTDVEYKGNPHDVKIDDNEVGYLLDVYNDHFKQQLTRDDIVWTYSGVRPLCDDESDSPQAITRDYTLSVDDDNGQAPLLSVFGGKLTTYRKLAEHALDKLHKYYPQAGKAWTKDAVLPGGDIAGTRDDYAAALRRRFNLPESLTRRYSRTYGSNSELILANVKGLSDLGEDFGHDLYEAELRYLVEKEWAVTLDDVIWRRTKLGMRFDDAQKQRISDWLVSYRQQQMAKAG
MGSDKIHHHHHHMETLFRSFRTQLEHTSTEVVRFLHDQIAWDSRLVAILGARGVGKTTLLLQHIKLYDREDESLYVTADDFYFTKYRLFDMAYQFYNLGGKKLYIDEIHKYKDWSREVKNIYDQIPGLQVIYTGSSILDLEKGGADLSRRKVEYRLPGLSFREYLNISQGWQLPSYSLEEILAGKVEFPYKEARPLKLFNDYLSTGYYPFFQDTEYLLRLRSVINQMVESDIPIFADMTVASAVKLKKLLYVLAQSVPFKPNYTKLARDLDISRNVLPDYMSYLEKAGLVNLLREKAQGLKLLEKVEKIYLNNTNLAYALSEQVPDIGSVRETVFLSWMRVVCFVTSSAISDFEIDGRTFEIGGKNKTRQQIKQAADGYVVKDDIEYAFRNMIPLWMFGFIY
MGSDKIHHHHHHMETQTRKHSEQKHNSFNNSLEVWKLCFSYPDFVFVSCFNNSLEVWKPGKTLTYDSATNGFNNSLEVWKHSSEALFKAEFRRFNNSLEVWKHHRARRRTLLLPGFNNSLEVWKLIDFKYDSSHYSGFNNSLEVWKPFVLELPDACDCTCFNNSLEVWKPHHRGDSLIRCRVSIIP
MGSDKIHHHHHHMEVAEGEFKPAFPIKPAQQLVFVHIPKCGGTSMHQFLANAKKVQPEPELSTILAGYCEPALHKHSKAAVIRDLVGPALWQTIFTFSVVRNPWDLMLSSYRWWLQKAGRFSSLRAQADEVADLGSFEGFLKSDFGGNRINECEGDILSWLSDENGQEIVDFVGRLEDIEQALQNVFERAGLAGYSEFPRLNSTVRGGYQDYYNAETKRLIQTRFQATIDRFEYQF
MGSDKIHHHHHHMEVIDLLFSLTPKTKKEDLFDRERELKDLEKLLETYPIVVITGLRRVGKSSLVKVFLNKSDLLHITVDGRRLYETSGGNISSHHLTRFLGEELSRISKSQKLLNVLKRVRGITVSGTSIELNPKEFSLSDLLEKLNETAKRRKKKIVIFFDEAQYLRYYGSRGGNDLLALFAYCYDNFENVRFIISGSEVGVLHDFLKLEDYSSPLHGRGIGFLTVRPFTFDQSVDFLMEGFREVGEKINFDVEEIVREIDGIVGYLVLFGVKYLEKKKKDEALKEVFHAVKALFEKEMEELRKRSERYPFILRQIARGINTWSALKNIFRAKGDFIGDSRLYSLLETLEKMSFIEKTQSGYRIVDPVFERILRE
MGSDKIHHHHHHMFDAIGWDEIKNFEYMKQSIIAKIEHACASHEIPLHTHPKGQLILALHGYVTCEVSAKMWMVPTHSAIWIPAYKVHSNRASDNAKLCHLFIDSNMDGMPQNTCTLAISPLVKELMCELASRDQHYRSNSKTARLAQVLHDQLIDMPIQHLDFVLSKNMVIQAMSQQLISQPHDRKTLPQWAEQFALTERTLARLIKKETGMTFGKWRTQLHIITSLQALSDKQSVQQVSELLGYESVSAFITMFKKVMKTSPMKYMNELNAY
MGSDKIHHHHHHMFDRSRKGEHALLIQTHSGGPAEEDVLEEFAELAKSAGATVAATLTARIDKPSPSTLIGSGKLEEVKAAAEATGADLVLVNHTLSPGQERNLERYLERRVIDRTGLILDIFAQRARSHEGKLQVELAQLRHMATRLVRGWTHLERQRGGAIGLRGPGETQLETDRRLLQKRVEQLQKRLEKVEVQRTQMRRARMRSELPRIALVGYTNAGKSTLFNALTGADAYAADQLFATLDPTVRRIALPGGSAVLADTVGFVRDLPHELVAAFRSTLSEARDADLLLHIVDAADPLREERIHQVDEVLQAVGAGDLPQLLVFNKIDKIEGAEVRHDAQDGIPDQARRERVWISARDGRGLEELQRALGHRLDLRHITGSLRLPASAGRLRSKLHQLEVIRSEQVDEEGWLLEVDLPYVEAERLAAGEDGAPLRALLPDRREDWET
MGSDKIHHHHHHMFELHPDSSTPLVNQIIDGLRELIDNQTLKPGAKVPSIRAFAASYSVSTFTVVEAYDRLVAQGLLVSRGNAGFFVNRAAGELLEQHNTEADTSRPTFNSEWYLQQIFEIRQLPYKPGCGWLPNDWMYEDGLRRGLRQVAGSPLELSGYGDPMGLMELRALTAQNLQQELSIVANPAQLMLTHGASQALDLAARTLVRPGDVVLVDDPGYPNLMSILRTQGATLVGVPRTPAGYDLNQLEQLLSHHRPTAFFTQPHLHSPTCSRTPLPQLHRLLQLASQHGFRLVENNLYADMVAEPQPCLASLDHLQQVVYVGSYSKSISPNVRVGYMLANPELMQKLLHLKMRSGLTTSQVMERVVYAAIIDGRWRKHLKRLRQRLAEAHQEVGRHLHRLGFELFTESDEGMYIWTRHPAIPDSAALLDDALEKGIMLGPGQLFMVDAKATGWMRFNVAFSTDPAMWELLEKVLVKHVRRSGM
